Test results: US20260266848A1, “COMPOSITIONS AND METHODS FOR DIAGNOSING AND TREATING DYSTONIA” (Duke University, priority 2023, published 2026)

B1: Ankfy1 (protein, UniProt Q810B6 2-1169, looked up)
Rabankyrin-5: AEEEVAKLEKHLMLLRQEYVKLQKKLAETEKRCTLLAAQANKENSNESFISRLLAIVAGLYEQEQYSDLKIKVGDRHISAHKFVLAARSDSWSLANLSSTEEIDLSDANPEVTMTMLRWIYTDELEFREDDVFLTELMKLANRFQLQLLRERCEKGVMSLVNVRNCIRFYQTAEELNASTLMNYCAEIIASHWDDLRKEDFSSLSAQLLYKMIKSKTEYPLHKAIKVEREDVVFLYLIEMDSQLPGKLNETDHNGDLALDLALSRRLESIATTLVSHKADVDMVDKNGWSLLHKGIQRGDLFASTFLIKNGALVNAATAGAQETPLHLVALYSPKKYSADVMSEMAQIAEALLQAGANPNMQDSKGRTPLHLSIMARNDCVFSQLLQCKQLDLELKDHEGSTALWLAVQYITVSSDQSVNPFEDLPVVNGTSFDENSFAARLIQRGSNTDAPDVMTGNCLLQRAAGAGNEAAALFLATSGAHANHRNKWGETPLHTACRHGLANLTAELLQQGANPNLQTEEALPVPKESPVLMSSADSIYLQTPLHMAIAYNHPDVVSVILEQKANALHATNNLQIIPDFSLKDSRDQTVLGLALWTGMHTIAAQLLGSGASINDTMSDGQTLLHMAIQRQDSKSALFLLEHQADINVRTQDGETALQLAIKHQLPLVVDAICTRGADMSVPDEKGNPPLWLALASNLEDIASTLVRHGCDATCWGPGPSGCLQTLLHRAVDENNESTACFLIRSGCDVNSPRQPGTNGEGEEEARDGQTPLHLAASWGLEETVQCLLEFGANVNAQDAEGRTPVHVAISNQHSVIIQLLISHPNIELSVRDRQGLTPFACAMTYKNNKAAEAILKRESGAAEQVDNKGRNFLHVAVQNSDIESVLFLISVQANVNSRVQDASKLTPLHLAVQAGSEIIVRNLLLAGAKVNELTKHRQTALHLAAQQDLPTICSVLLENGVDFAAVDENGNNALHLAVMHGRLNNIRALLTECTVDAEAFNLRGQSPLHILGQYGKENAAAIFDLFLECMPEYPLDKPDAEGNTVLLLAYMKGNANLCRAIVRSGVRLGVNNNQGVNIFNYQVATKQLLFRLLDMLSKEPPWCDGSNCYECTAKFGVTTRKHHCRHCGRLLCHKCSTKEIPIIKFDLNKPVRVCNICFDVLTLGGVS
B2: Copg2 (protein, UniProt Q9QXK3 1-871, looked up)
Coatomer subunit gamma-2: MIKKFDKKDEESGSGSNPFQHLEKSAVLQEARIFNETPINPRRCLHILTKILYLLNQGEHFGTMEATEAFFAMTRLFQSNDQTLRRMCYLTIKEMATISEDVIIVTSSLTKDMTGKEDVYRGPAIRALCRITDGTMLQAVERYMKQAIVDKVSSVASSALVSSLHMMKISYDVVKRWINEAQEAASSDNIMVQYHALGVLYHLRKNDRLAVSKMLNKFTKSGLKSQFAYCMLIRIASRLLKESEDGHESPLFDFIESCLRNKHEMVIYEAASAIIHLPNCTARELAPAVSVLQLFCSSPKPALRYAAVRTLNKVAMKHPSAVTACNLDLENLITDSNRSIATLAITTLLKTGSESSVDRLMKQISSFVSEISDEFKVVVVQAISALCHKYPRKHSVMMTFLSNMLRDDGGFEYKKAIVDCIISIVEENPESKEAGLAHLCEFIEDCEHTVLATKILHLLGKEGPRTPVPSKYIRFIFNRVVLENEAVRAAAVSALAKFGAQNESLLPSILVLLQRCMMDTDDEVRDRATFYLNVLQQRQMALNATYIFNGLTVSIPGMEKALHQYTLEPSEKPFDMKSIPLAMAPVFEQKSEITLVTPKPEKLAPSRQDIFQEQLAAIPEFMNLGPLFKSSEPVQLTEAETEYFVRCVKHMFTDHIVFQFDCTNTLNDQLLEKVTVQMEPSDSYEVLCCIPAPSLPYNQPGICYTLVRLPDEDPTAVAGTFSCTMKFTVRDCDPNTGVPDEDGYDDEYVLEDLEVTVSDHIQKILKPNFAAAWEEVGDAFEKEETFALSSTKTLEEAVNNIITFLGMQPCERSDKVPENKNSHSLYLAGVYRGGYDLLVRSRLALADGVTMQVTVRSKERTPVDVILASVG
B3: Vps26b (protein, UniProt Q8C0E2 1-336, looked up)
Vacuolar protein …: MSFFGFGQSVEVEILLNDAESRKRAEHKTEDGKKEKYFLFYDGETVSGKVSLSLKNPNKRLEHQGIKIEFIGQIELYYDRGNHHEFVSLVKDLARPGEITQSQAFDFEFTHVEKPYESYTGQNVKLRYFLRATISRRLNDVVKEMDIVVHTLSTYPELNSSIKMEVGIEDCLHIEFEYNKSKYHLKDVIVGKIYFLLVRIKIKHMEIDIIKRETTGTGPNVYHENDTIAKYEIMDGAPVRGESIPIRLFLAGYELTPTMRDINKKFSVRYYLNLVLIDEEERRYFKQQEVVLWRKGDIVRKSMSHQAAIASQRFEGTTSLGEVRTPGQLSDNNSRQ
B4: Wars (protein, UniProt P32921 1-481, looked up)
Tryptophan--tRNA ligase, …: MADMPSGESCTSPLELFNSIATQGELVRSLKAGNAPKDEIDSAVKMLLSLKMSYKAAMGEEYKAGCPPGNPTAGRNCDSDATKASEDFVDPWTVRTSSAKGIDYDKLIVQFGSSKIDKELINRIERATGQRPHRFLRRGIFFSHRDMNQILDAYENKKPFYLYTGRGPSSEAMHLGHLVPFIFTKWLQDVFNVPLVIQMSDDEKYLWKDLTLEQAYSYTVENAKDIIACGFDINKTFIFSDLEYMGQSPGFYRNVVKIQKHVTFNQVKGIFGFTDSDCIGKISFPAVQAAPSFSNSFPKIFRDRTDIQCLIPCAIDQDPYFRMTRDVAPRIGHPKPALLHSTFFPALQGAQTKMSASDPNSSIFLTDTAKQIKSKVNKHAFSGGRDTVEEHRQFGGNCEVDVSFMYLTFFLEDDDRLEQIRKDYTSGAMLTGELKKTLIDVLQPLIAEHQARRKAVTEETVKEFMTPRQLSFHFQCFCFDT
B5: Picalm (protein, UniProt Q7M6Y3 2-660, looked up)
Phosphatidylinositol-binding …: SGQSLTDRITAAQHSVTGSAVSKTVCKATTHEIMGPKKKHLDYLIQCTNEMNVNIPQLADSLFERTTNSSWVVVFKSLITTHHLMVYGNERFIQYLASRNTLFNLSNFLDKSGLQGYDMSTFIRRYSRYLNEKAVSYRQVAFDFTKVKRGADGVMRTMNTEKLLKTVPIIQNQMDALLDFNVNSNELTNGVINAAFMLLFKDAIRLFAAYNEGIINLLEKYFDMKKNQCKEGLDIYKKFLTRMTRISEFLKVAEQVGIDRGDIPDLSQAPSSLLDALEQHLASLEGKKIKDSTAASRATTLSNAVSSLASTGLSLTKVDEREKQAALEEEQARLKALKEQRLKELAKKPHTSLTTAASPVSTSAGGIMTAPAIDIFSTPSSSNSTSKLPNDLLDLQQPTFHPSVHAMSAAPQGASTWGDPFSATLDAVEDAIPSLNPFLTKSSGDVHLPIASDVSTFTTRTPTHEMFVGFSPSPVAQPHSSAGLNVDFESVFGNKSTNVAVDSGGFDELGGLLKPTVASQNQSLPVAKLPPNKLVSDDLDSSLANLVGNLGIGNGTTKNDVSWSQPGEKKLTGGSNWQPKVAPTTAWSAATMNGMHFPQYAPPVMAYPATTPTGMIGYGIPPQMGSVPVMTQPTLIYSQPVMRPPNPFGPVSGAQIQFM
B6: Megf10 (protein, UniProt Q6DIB5 26-1147, looked up)
Multiple epidermal growth …: LNLEDPNVCSHWESYSVTVQESYPHPFDQIYYTSCTDILNWFKCTRHRISYRTAYRHGEKTMYRRKSQCCPGFYESRDMCVPHCADKCVHGRCIAPNTCQCEPGWGGTNCSSACDGDHWGPHCSSRCQCKNRALCNPITGACHCAAGYRGWRCEDRCEQGTYGNDCHQRCQCQNGATCDHITGECRCSPGYTGAFCEDLCPPGKHGPHCEQRCPCQNGGVCHHVTGECSCPSGWMGTVCGQPCPEGRFGKNCSQECQCHNGGTCDAATGQCHCSPGYTGERCQDECPVGSYGVRCAEACRCVNGGKCYHVSGTCLCEAGFSGELCEARLCPEGLYGIKCDKRCPCHLDNTHSCHPMSGECGCKPGWSGLYCNETCSPGFYGEACQQICSCQNGADCDSVTGRCACAPGFKGTDCSTPCPLGRYGINCSSRCGCKNDAVCSPVDGSCICKAGWHGVDCSIRCPSGTWGFGCNLTCQCLNGGACNTLDGTCTCAPGWRGAKCEFPCQDGTYGLNCAERCDCSHADGCHPTTGHCRCLPGWSGVHCDSVCAEGRWGPNCSLPCYCKNGASCSPDDGICECAPGFRGTTCQRICSPGFYGHRCSQTCPQCVHSSGPCHHITGLCDCLPGFTGALCNEVCPSGRFGKNCAGVCTCTNNGTCNPIDRSCQCYPGWIGSDCSQPCPPAHWGPNCIHTCNCHNGAFCSAYDGECKCTPGWTGLYCTQRCPLGFYGKDCALICQCQNGADCDHISGQCTCRTGFMGRHCEQKCPAGTYGYGCRQICDCLNNSTCDHITGTCYCSPGWKGARCDQAGVIIVGNLNSLSRTSTALPADSYQIGAIAGIVVLVLVVLFLLALFIIYRHKQKRKESSMPAVTYTPAMRVINADYTIAETLPHSNGGNANSHYFTNPSYHTLSQCATSPHVNNRDRMTIAKSKNNQLFVNLKNVNPGKRGTLVDCTGTLPADWKQGGYLNELGAFGLDRSYMGKSLKDLGKNSEYNSSTCSLSSSENPYATIKDPPALLPKSSECGYVEMKSPARRDSPYAEINNSTPANRNVYEVEPTVSVVQGVFSNSGHVTQDPYDLPKNSHIPCHYDLLPVRDSSSSPKREDGGGSNSTSSNSTSSSSSSSE

How the values were obtained:
WT MEF EVs = test: Quantitative LC-MS/MS proteomics of EVs from ISRIB-treated WT MEF cultures; format: cell-based, mouse; design: key to ISRIB and DYT Parallel Direction / ISRIB and DYT Parallel Direction, Ctdsp1 / ISRIB and DYT Parallel Direction, Pcdh19 / ISRIB and DYT Parallel Direction, Tspan7 / ISRIB and DYT Parallel Direction, Myo1e / ISRIB and DYT Parallel Direction, Plpp3 / ISRIB and DYT Parallel Direction, Sh3bp4 / ISRIB and DYT Parallel Direction, Dnajc7 / ISRIB and DYT Parallel Direction, Drg1 / ISRIB and DYT Parallel Direction, Maea: YES = protein abundance effect similar to DYT/WT; conditions: EV protein abundance; for WT + ISRIB/WT Cohen's d: ISRIB-treated WT vs WT; for ISRIB and DYT Parallel Direction: WT + ISRIB vs WT, direction compared with DYT/WT
DYT-TOR1A MEF EVs = test: Quantitative LC-MS/MS proteomics of EVs from drug-treated DYT-TOR1A MEF cultures (ritonavir, salubrinal); format: cell-based, mouse; design: key to RTV Corrective Direction / RTV Corrective Direction, Grwd1 / RTV Corrective Direction, Srrm2 / RTV Corrective Direction, Rbm17 / RTV Corrective Direction, Dcaf8 / RTV Corrective Direction, Edil3 / RTV Corrective Direction, Timp3 / RTV Corrective Direction, Heatr3 / RTV Corrective Direction, Brd4 / RTV Corrective Direction, P3h4 / RTV Corrective Direction, Pacsin3 / RTV Corrective Direction, Naa50 / RTV Corrective Direction, Lpar6 / RTV Corrective Direction, Ndrg1 / RTV Corrective Direction, Kntc1 / RTV Corrective Direction, Cdk11b / RTV Corrective Direction, Sumo1 / RTV Corrective Direction, Lsm4 / RTV Corrective Direction, Hmga2 / RTV Corrective Direction, Cstf1 / RTV Corrective Direction, Tes / RTV Corrective Direction, Sbno1 / RTV Corrective Direction, Unc119b / RTV Corrective Direction, Cfdp1 / RTV Corrective Direction, Sec61b: YES = protein abundance effect opposite to DYT/WT; conditions: EV protein abundance; for RTV Corrective Direction: DYT + RTV (ritonavir) vs DYT, direction compared with DYT/WT; for DYT + RTV/DYT Cohen's d: ritonavir (RTV)-treated DYT vs DYT

| Molecule | WT + ISRIB/WT Cohen's d (WT MEF EVs) | ISRIB and DYT Parallel Direction (WT MEF EVs) | RTV Corrective Direction (DYT-TOR1A MEF EVs) | DYT + RTV/DYT Cohen's d (DYT-TOR1A MEF EVs) |
| --- | --- | --- | --- | --- |
| B1 | −1.45 | YES | YES | 2.86 |
| B2 | −0.44 | YES | YES | 3.05 |
| B3 | −1.43 | YES | YES | 3.01 |
| B4 | −1.03 | YES | YES | 4.38 |
| B5 | −1.01 | YES | YES | 2.85 |
| B6 | 1.37 | YES | YES | −2.80 |
